B1: LINE1-mini (parent)
chain: GGCAGAGCUCAACACAGCGUGGCAAAGUGGCUGUGGCUAGACUGCC

Variants of: B1
Assay: self-cleavage, relative activity (ratio to wild type); higher = more cleavage; in vitro, sequencing; the parent is a self-cleaving ribozyme

In order of rising self-cleavage:
1. G2C A16C  0.02
2. G2C U32G  0.02
3. G2U A41C  0.02
4. G2U C13G  0.02
5. G2C A11G  0.02
6. G2C A11C  0.02
7. G2U A16U  0.02
8. G2U C10A  0.02
9. G2U C10G  0.02
10. G2C U9C  0.03
11. G2C C42G  0.03
12. G2C A11U  0.03
13. G2C C13G  0.03
14. G2U C10U  0.03
15. G2C U38G  0.03
16. G2U C18G  0.03
17. G2U C18A  0.03
18. G2C A16U  0.04
19. G2C U43G  0.04
20. G2C U43A  0.04
21. G2C U38C  0.04
22. G1U U32G  0.05
23. G2C C37G  0.05
24. G2C U20G  0.05
25. G2C C18G  0.05
26. G2C U28G  0.05
27. G2U A16G  0.05
28. G1U U43A  0.05
29. G2A A11C  0.05
30. G2C G17C  0.05
31. G2U C18U  0.05
32. G1U U32A  0.06
33. G2C C37A  0.06
34. G2C C37U  0.06
35. G2U C13A  0.06
36. G2U C13U  0.06
37. G2C A24C  0.06
38. G2C U20A  0.06
39. G2C C18A  0.06
40. G2C A25G  0.06
41. G2C G29C  0.06
42. G2U A24G  0.06
43. G1U U43C  0.06
44. G2C U38A  0.06
45. G2C G17U  0.06
46. G2C U9G  0.07
47. G2C G40C  0.07
48. G2C C3G  0.07
49. G2C C42U  0.07
50. G2U A24C  0.07
51. G1U U43G  0.07
52. G2A C10A  0.07
53. G2C U32C  0.08
54. G1U U32C  0.08
55. G2C C42A  0.08
56. G2U A41U  0.08
57. G2C U20C  0.08
58. G2C A4U  0.08
59. G2C C8G  0.08
60. G2C A25U  0.08
61. G2C C13A  0.08
62. G2C C23A  0.08
63. G2A A11G  0.08
64. G2C G17A  0.08
65. G2A A41C  0.08
66. G2C A16G  0.09
67. G2C G40A  0.09
68. G2C A26U  0.09
69. G2U A41G  0.09
70. G2C A24G  0.09
71. G2C C18U  0.09
72. G2U A26C  0.09
73. G2C U28C  0.09
74. G2C A39C  0.09
75. G2C A39G  0.09
76. G2C G29A  0.1
77. G2C A39U  0.1
78. G2C A26C  0.11
79. G2C A26G  0.11
80. G2C A4C  0.11
81. G2U A26U  0.11
82. G2A C10G  0.11
83. G2C A41U  0.12
84. G2C A41C  0.12
85. G2C C23G  0.12
86. G2A A11U  0.12
87. G2C G40U  0.13
88. G2A C8G  0.13
89. G2A C37G  0.13
90. G2U A26G  0.13
91. G2A U43C  0.13
92. G2U A16C  0.13
93. G2A C31G  0.14
94. G2C G44U  0.14
95. G2A U43A  0.14
96. G2A U43G  0.14
97. G2A U32A  0.14
98. G2C U43C  0.15
99. G2C A24U  0.15
100. G2C A25C  0.15
101. G2C U9A  0.16
102. G2C A4G  0.16
103. G2A A16C  0.16
104. G1U U20G  0.16
105. G2C C23U  0.16
106. G2A C18A  0.16
107. G2C G44A  0.17
108. G2C U32A  0.17
109. G2C A41G  0.17
110. G2A G7U  0.17
111. G2C C8A  0.17
112. G2C G44C  0.18
113. G2C C8U  0.18
114. G2C C13U  0.18
115. G2C G29U  0.19
116. G2U A24U  0.19
117. G2A G36U  0.19
118. G2A U32G  0.2
119. G2A C31A  0.23
120. G2C U28A  0.23
121. G2C G30C  0.23
122. G2C G30A  0.24
123. G2A U32C  0.24
124. G2A C31U  0.25
125. G2U C3G  0.26
126. G2A A16G  0.26
127. G2A C37U  0.28
128. G2A G36C  0.28
129. G2C G30U  0.29
130. G2A A16U  0.33
131. G2A C42G  0.34
132. G2A C37A  0.35
133. G2A C42A  0.36
134. G2U C3U  0.37
135. G2A G7C  0.39
136. G2A A41G  0.4
137. G2A C10U  0.41
138. G2A A4G  0.42
139. G2C C3A  0.42
140. G2A C8U  0.43
141. G2A C42U  0.44
142. G2A G21C  0.46
143. G2A C18U  0.46
144. G2A C18G  0.46
145. G2A U28G  0.48
146. G2U C3A  0.48
147. G2A G44A  0.49
148. G2A G30C  0.51
149. G2C C3U  0.54
150. G2A G44C  0.56
151. G2A A4U  0.58
152. G2A C8A  0.61
153. G2A G27A  0.66
154. G2A A41U  0.66
155. G2A A4C  0.67
156. G2A G36A  0.69
157. G2A G27C  0.72
158. G2A G27U  0.75
159. G2A G44U  0.75
160. G2A G7A  0.86
161. G2A C46U  0.87
162. G2A G21U  0.89
163. G2A C46G  0.96
164. G2A C46A  1.23
165. G2A G30U  1.4
166. G2A G30A  1.67
167. G2A G21A  2.98

Reference: the RNAGym collection of RNA variant scans (doi:10.7554/elife.90254)
